Measurements from US20220340678A1.
Blank lines part the entries; values can stand above or below the substance they belong to.

How the values were obtained:
[1] = target: p40 without a fusion partner (human) (UniProt P29460); assay: cell-based or functional assay
[2] = target: p40-Fab fusion protein (human) (UniProt P29460); assay: cell-based or functional assay
[3] = target: p40-IgG (anti-uPAR M37 IgG) (human) (UniProt P29460); assay: cell-based or functional assay
[4] = target: p35-MSA fusion protein (human; mouse) (UniProt P29459); assay: BLI (Octet), biotinylated p35-MSA against p40-fab, 47 hr at 37 C
[5] = target: p35-MSA fusion protein (human; mouse) (UniProt P29459); assay: BLI (Octet), biotinylated p35-MSA against p40-fab, 24 hr at 37 C
[6] = target: p35-MSA fusion protein (human; mouse) (UniProt P29459); assay: BLI (Octet), biotinylated p35-MSA against p40-fab, 4 hr at 37 C
[7] = target: p35-MSA fusion protein (human; mouse) (UniProt P29459); assay: BLI (Octet), biotinylated p35-MSA against p40-fab, 0 hr at 37 C
[8] = target: GM-CSF receptor on U937 cells (human); assay: cell-based or functional assay
[9] = target: IL-12 receptor on HEK-BLUE IL-12 cells; assay: cell-based or functional assay

Sequence of p40-Fab fusion protein (P29460 23-328): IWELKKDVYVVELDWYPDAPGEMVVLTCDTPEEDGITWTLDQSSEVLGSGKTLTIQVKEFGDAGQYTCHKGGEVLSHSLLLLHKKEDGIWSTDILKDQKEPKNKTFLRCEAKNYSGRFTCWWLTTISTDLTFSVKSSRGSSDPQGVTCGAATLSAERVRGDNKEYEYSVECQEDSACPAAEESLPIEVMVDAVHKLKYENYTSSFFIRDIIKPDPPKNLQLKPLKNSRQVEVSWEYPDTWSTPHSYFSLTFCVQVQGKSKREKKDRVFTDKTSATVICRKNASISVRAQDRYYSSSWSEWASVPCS
Sequence of p40-IgG (anti-uPAR M37 IgG) (human) (P29460 23-328): as above
Sequence of p40-Fab fusion protein (human) (P29460 23-328): as above
Sequence of p35-MSA fusion protein (human; mouse) (P29459 23-219): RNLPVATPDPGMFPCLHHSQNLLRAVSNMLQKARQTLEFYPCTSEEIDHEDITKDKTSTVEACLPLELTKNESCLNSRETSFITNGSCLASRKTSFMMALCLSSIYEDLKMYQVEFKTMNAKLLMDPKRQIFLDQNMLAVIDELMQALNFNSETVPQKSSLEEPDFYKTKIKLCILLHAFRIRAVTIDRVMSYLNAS

EC50, % pStat4 formation in CD4+ T cells [1]: 0.842 nM
EC50, % pStat4 formation in CD8+ T cells [1]: 0.00106 µM
EC50, IFN gamma production by T cells [1]: 0.657 nM
EC50 fold change relative to scIL-12, IFN gamma production [1]: 128 fold
EC50 fold change relative to scIL-12, pStat4 in CD4+ T cells [1]: 16.4 fold
EC50 fold change relative to scIL-12, pStat4 in CD8+ T cells [1]: 14.2 fold
EC50, % pStat4 formation in CD4+ T cells [2]: 0.708 nM
EC50, % pStat4 formation in CD8+ T cells [2]: 0.912 nM
EC50, IFN gamma production by T cells [2]: 0.559 nM
EC50 fold change relative to scIL-12, IFN gamma production [2]: 109 fold
EC50 fold change relative to scIL-12, pStat4 in CD4+ T cells [2]: 13.8 fold
EC50 fold change relative to scIL-12, pStat4 in CD8+ T cells [2]: 12.2 fold
EC50, % pStat4 formation in CD4+ T cells [3]: 0.173 nM
EC50, % pStat4 formation in CD8+ T cells [3]: 0.571 nM
EC50, IFN gamma production by T cells [3]: 0.403 nM
EC50 fold change relative to scIL-12, IFN gamma production [3]: 78.2 fold
EC50 fold change relative to scIL-12, pStat4 in CD4+ T cells [3]: 3.37 fold
EC50 fold change relative to scIL-12, pStat4 in CD8+ T cells [3]: 7.66 fold
Substance: p35-MSA fusion protein (from UniProt P29459 23-219)

Kd [4]: 10.5 nM
koff [4]: 0.000376 s⁻¹
kon [4]: 35800 M⁻¹ s⁻¹
Kd [5]: 11.1 nM
koff [5]: 0.000422 s⁻¹
kon [5]: 38100 M⁻¹ s⁻¹
Kd [6]: 7.54 nM
koff [6]: 0.000385 s⁻¹
kon [6]: 51100 M⁻¹ s⁻¹
Kd [7]: 7.82 nM
koff [7]: 0.000462 s⁻¹
kon [7]: 59100 M⁻¹ s⁻¹
Substance: p40-Fab fusion protein (from UniProt P29460 23-328)

pSTAT5 EC50, U937 cells, no competitor [8]: 18.6 pM
Substance: recombinant human GM-CSF (R&D Systems, cat # 215-GM-050/CF) (from UniProt P04141 18-144) (ligand)

potency, SEAP reporter in HEK-BLUE IL-12 cells [9]: 0.018 nM
Substance: wild-type human IL-12 (R&D Systems, Cat. No. 219-IL-005/CF) (from UniProt P29459 23-219; P29460 23-328) (ligand)
